Patent US20180086841A1 (Merck Sharp & Dohme, published 2018)

Tests used:
Assay in all cases: flow cytometry on CHO-K1 transfectants, left sub-column
W90A = target: T1, W90A
T1 construct: also called hCD27 W90A
T1 receptor chain: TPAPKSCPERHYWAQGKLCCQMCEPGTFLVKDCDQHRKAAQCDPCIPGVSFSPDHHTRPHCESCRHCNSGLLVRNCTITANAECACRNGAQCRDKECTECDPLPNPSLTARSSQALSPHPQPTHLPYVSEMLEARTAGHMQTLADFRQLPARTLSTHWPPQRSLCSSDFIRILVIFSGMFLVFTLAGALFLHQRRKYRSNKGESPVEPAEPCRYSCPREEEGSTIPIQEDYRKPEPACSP
Method: (§1) The hCD27 variants that were tested are listed. Amino acids correspond to the UniProt P26842-1 sequence. Amino acids 1-20 constitute the signal peptide. Binding is expressed as the geometric mean of the FITC signal, relative to antibody binding to hCD27, which was set at 100%.
(§2) The ability of several anti-hCD27 antibodies to bind to a series of hCD27 alanine mutants was determined using CHO-K1 cells, transiently transfected pCI-neo empty vector, pCI-neo.hCD27 and several pCI-neo.CD27Ala mutant constructs.
(§3) Detached cells were transferred to 96 wells round-bottomed well plates at approximately 1.2×10⁵ cells/well. After spinning down the cells, discarding the supernatants and re-suspending the cells in the residual volume, the primary antibodies were added and incubated for 30 minutes at 4° C. Cells were washed three times with DPBS/BSA 1%, followed by centrifugation, discarding of the supernatants and re-suspension in the residual volume. […] After washing once, antibody binding was detected using the HTS plate reader (FACS Canto II) and FlowJo software for data analysis. Debris, dead cells and doublets were excluded from the analysis. Binding was expressed as the geometric mean of the FITC signal, relative to antibody binding to hCD27, which was set at 100%.

K17A = target: T2, K17A
T2 construct: also called hCD27 K17A
T2 receptor chain: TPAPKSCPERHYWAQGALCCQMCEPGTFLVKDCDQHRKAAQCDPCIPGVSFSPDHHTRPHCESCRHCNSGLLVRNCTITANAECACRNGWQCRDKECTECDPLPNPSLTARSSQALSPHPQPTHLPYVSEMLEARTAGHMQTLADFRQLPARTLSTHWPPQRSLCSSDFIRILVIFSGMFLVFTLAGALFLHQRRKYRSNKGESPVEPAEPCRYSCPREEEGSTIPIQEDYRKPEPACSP
Method: as §1, §2, §3

Q15A = target: T3, Q15A
T3 construct: also called hCD27 Q15A
T3 receptor chain: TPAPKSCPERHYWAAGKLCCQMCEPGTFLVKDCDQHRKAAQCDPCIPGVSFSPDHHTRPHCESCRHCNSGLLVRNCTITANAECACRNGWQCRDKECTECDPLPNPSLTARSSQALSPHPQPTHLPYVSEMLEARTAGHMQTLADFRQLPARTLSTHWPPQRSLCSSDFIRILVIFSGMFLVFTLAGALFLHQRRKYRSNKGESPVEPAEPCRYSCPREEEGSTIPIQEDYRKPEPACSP
Method: as §1, §2, §3

P44A = target: T4, P44A
T4 construct: also called hCD27 P44A
T4 receptor chain: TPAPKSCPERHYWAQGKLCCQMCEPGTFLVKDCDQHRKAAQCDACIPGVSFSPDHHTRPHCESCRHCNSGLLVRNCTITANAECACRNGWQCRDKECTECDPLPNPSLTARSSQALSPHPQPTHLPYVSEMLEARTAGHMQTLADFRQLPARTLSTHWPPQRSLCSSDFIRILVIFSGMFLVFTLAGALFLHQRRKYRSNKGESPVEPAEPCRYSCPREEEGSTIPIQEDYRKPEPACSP
Method: as §1, §2, §3

Q91A = target: T5, Q91A
T5 construct: also called hCD27 Q91A
T5 receptor chain: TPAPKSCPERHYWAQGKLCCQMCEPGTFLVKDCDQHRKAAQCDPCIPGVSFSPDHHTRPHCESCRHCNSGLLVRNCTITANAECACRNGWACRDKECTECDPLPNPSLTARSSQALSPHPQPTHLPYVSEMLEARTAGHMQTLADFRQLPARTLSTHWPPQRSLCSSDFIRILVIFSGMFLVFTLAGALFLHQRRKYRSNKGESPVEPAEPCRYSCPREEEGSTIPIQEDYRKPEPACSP
Method: as §1, §2, §3

V49A = target: T6, V49A
T6 construct: also called hCD27 V49A
T6 receptor chain: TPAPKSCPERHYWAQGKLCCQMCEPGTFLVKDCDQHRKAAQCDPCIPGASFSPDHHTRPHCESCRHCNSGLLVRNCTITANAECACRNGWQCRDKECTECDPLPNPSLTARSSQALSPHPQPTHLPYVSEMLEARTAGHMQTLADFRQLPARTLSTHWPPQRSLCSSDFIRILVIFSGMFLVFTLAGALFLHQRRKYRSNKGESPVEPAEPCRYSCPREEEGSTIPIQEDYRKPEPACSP
Method: as §1, §2, §3

H60A = target: T7, H60A
T7 construct: also called hCD27 H60A
T7 receptor chain: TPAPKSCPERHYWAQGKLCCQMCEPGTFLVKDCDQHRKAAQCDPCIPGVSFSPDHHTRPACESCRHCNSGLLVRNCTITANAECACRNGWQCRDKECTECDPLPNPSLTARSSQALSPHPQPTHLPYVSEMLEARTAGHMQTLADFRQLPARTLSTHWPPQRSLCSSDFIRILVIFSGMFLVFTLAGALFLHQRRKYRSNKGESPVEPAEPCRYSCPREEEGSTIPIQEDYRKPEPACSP
Method: as §1, §2, §3

D43A = target: T8, D43A
T8 construct: also called hCD27 D43A
T8 receptor chain: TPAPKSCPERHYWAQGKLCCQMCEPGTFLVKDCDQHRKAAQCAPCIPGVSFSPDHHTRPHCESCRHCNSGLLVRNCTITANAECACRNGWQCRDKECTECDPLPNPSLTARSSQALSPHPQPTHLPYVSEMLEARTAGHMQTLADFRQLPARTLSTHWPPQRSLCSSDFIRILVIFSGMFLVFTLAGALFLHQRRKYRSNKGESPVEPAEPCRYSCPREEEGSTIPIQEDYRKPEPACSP
Method: as §1, §2, §3

S63A = target: T9, S63A
T9 construct: also called hCD27 S63A
T9 receptor chain: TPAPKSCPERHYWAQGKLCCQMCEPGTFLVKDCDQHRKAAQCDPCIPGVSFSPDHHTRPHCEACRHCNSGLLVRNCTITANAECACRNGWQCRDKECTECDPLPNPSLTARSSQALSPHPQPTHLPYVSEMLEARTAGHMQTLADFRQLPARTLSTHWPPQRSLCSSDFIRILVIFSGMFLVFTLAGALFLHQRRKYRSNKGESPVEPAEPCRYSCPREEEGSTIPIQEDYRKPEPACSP
Method: as §1, §2, §3

D32A = target: T10, D32A
T10 construct: also called hCD27 D32A
T10 receptor chain: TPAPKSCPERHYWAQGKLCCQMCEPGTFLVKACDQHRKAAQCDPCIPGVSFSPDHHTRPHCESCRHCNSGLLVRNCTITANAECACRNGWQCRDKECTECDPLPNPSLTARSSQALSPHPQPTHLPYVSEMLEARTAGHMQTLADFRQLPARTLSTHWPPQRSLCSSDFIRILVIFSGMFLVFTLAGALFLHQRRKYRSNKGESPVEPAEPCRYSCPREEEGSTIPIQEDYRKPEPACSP
Method: as §1, §2, §3

binding, WT hCD27 = 100 (GM FITC) (W90A): 126% | binding, WT hCD27 = 100 (GM FITC) (K17A): 103% | binding, WT hCD27 = 100 (GM FITC) (Q15A): 99.6% | binding, WT hCD27 = 100 (GM FITC) (P44A): 158% | binding, WT hCD27 = 100 (GM FITC) (Q91A): 148% | binding, WT hCD27 = 100 (GM FITC) (V49A): 147% | binding, WT hCD27 = 100 (GM FITC) (H60A): 178% | binding, WT hCD27 = 100 (GM FITC) (D43A): 194% | binding, WT hCD27 = 100 (GM FITC) (S63A): 162% | binding, WT hCD27 = 100 (GM FITC) (D32A): 113%
B1: hCD27.131A (mouse parental 131A) (antibody, mouse IgG1, V domains shown)
VH: QIQLVQSGPELKKPGETVKISCKASGYTFTNYGMNWVKQAPGKGLKWMGWINTNTGEPTYAEEFKGRFAFSLETSATTAYLQINNLKNEDTATYFCAREGDAMDYWGQGTSVTVSS
VL: QIVLTQSPAIMSASPGEKVTMTCSASSSVSYMHWYQQKSGTSPKRWIYDTSKLASGVPARFSGSGSGTSYSLTISSMEAEDAATYYCQQWNSYPFTFGSGTKLEIK
notes: Mouse IgG1 antibody; also called mouse hCD27.131A
